Measurements from patent US20170081400A1 (CEPHALON, published 2017).
Residue numbers refer to the chain shown, from its start. Values belong to the binder of their own block, whether it stands above or below them.

Key:
[1] = molecular target: T1, cat TL1A (cat); test: SPR: 320-587 captured on Protein A, TL1A of the species flowed over
T1 construct: recombinantly produced; whole entry named
T1 chain: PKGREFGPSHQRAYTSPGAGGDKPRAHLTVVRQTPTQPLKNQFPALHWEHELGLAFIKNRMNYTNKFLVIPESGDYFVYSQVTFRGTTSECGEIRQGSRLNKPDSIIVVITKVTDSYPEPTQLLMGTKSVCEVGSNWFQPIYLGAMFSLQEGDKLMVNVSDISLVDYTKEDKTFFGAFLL

[2] = molecular target: T2, guinea pig TL1A (guinea pig); test: as above
T2 construct: recombinantly produced; whole entry named
T2 chain: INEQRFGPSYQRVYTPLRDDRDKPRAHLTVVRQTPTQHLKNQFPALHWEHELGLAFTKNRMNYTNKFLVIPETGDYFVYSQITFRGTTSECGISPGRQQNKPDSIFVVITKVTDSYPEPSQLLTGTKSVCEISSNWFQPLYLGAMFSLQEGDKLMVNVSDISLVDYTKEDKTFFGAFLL

[3] = molecular target: T3, rat TL1A (rat, UniProt Q8K3Y7 73-252); test: as above
T3 construct: recombinantly produced; whole entry named
T3 sequence: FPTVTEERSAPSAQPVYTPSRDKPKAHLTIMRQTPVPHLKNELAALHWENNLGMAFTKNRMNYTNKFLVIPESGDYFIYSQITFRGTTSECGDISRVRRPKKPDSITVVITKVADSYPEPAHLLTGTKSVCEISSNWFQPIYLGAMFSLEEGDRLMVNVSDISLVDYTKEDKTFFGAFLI

[4] = molecular target: T4, rabbit TL1A (rabbit); test: as above
T4 construct: recombinantly produced; whole entry named
T4 chain: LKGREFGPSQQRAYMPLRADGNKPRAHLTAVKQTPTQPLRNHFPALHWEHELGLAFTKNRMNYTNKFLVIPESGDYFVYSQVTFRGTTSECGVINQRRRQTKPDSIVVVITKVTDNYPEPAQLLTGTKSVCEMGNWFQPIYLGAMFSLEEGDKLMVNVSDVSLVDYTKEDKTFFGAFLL

[5] = molecular target: T5, dog TL1A (dog); test: as above
T5 construct: recombinantly produced; whole entry named
T5 chain: T1 chain with R4Q, P8H, T15A, G18R, T34S, K40E, N41S, Q42L, I57T, I94A

[6] = molecular target: T6, cynomolgus monkey TL1A (cynomolgus monkey, UniProt O95150 72-251 (human entry), limits assumed); test: as above
T6 construct: recombinantly produced; whole entry named
T6 chain: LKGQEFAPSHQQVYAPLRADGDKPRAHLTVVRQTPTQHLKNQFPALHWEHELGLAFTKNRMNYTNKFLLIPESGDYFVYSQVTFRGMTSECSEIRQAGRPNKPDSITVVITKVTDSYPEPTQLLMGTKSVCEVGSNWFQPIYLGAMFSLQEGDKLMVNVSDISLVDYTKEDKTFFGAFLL

[7] = molecular target: T7, mouse TL1A (mouse, UniProt Q5UBV8 73-252); test: as above
T7 construct: recombinantly produced; whole entry named
T7 sequence: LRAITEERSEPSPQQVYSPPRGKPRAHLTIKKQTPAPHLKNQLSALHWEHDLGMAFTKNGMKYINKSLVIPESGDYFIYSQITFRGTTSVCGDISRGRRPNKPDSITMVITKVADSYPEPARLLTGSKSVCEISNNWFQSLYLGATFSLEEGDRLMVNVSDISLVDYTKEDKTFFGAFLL

[8] = molecular target: T8, human TL1A extracellular domain with N-terminal HIS and FLAG tag (human, UniProt O95150 72-251); test: KinExA, TL1A as CBP, free TL1A captured on 320-587-coated PMMA beads; average of two
T8 construct: whole entry named. ~70 kDa fraction purified by gel filtration
T8 sequence: T6 chain with L39F, V78I

[9] = molecular target: T8, human TL1A extracellular domain with …; test: KinExA, TL1A as CBP, free TL1A captured on 320-587-coated PMMA beads; repeat 1
[10] = molecular target: T8, human TL1A extracellular domain with …; test: KinExA, 320-587 as CBP, free 320-587 captured on TL1A-coated Sepharose beads; repeat 2
[11] = molecular target: T8, human TL1A extracellular domain with …; test: KinExA, 320-587 as CBP, free 320-587 captured on TL1A-coated Sepharose beads; average of two
[12] = molecular target: T8, human TL1A extracellular domain with …; test: KinExA, 320-587 as CBP, free 320-587 captured on TL1A-coated Sepharose beads; repeat 1
[13] = molecular target: T8, human TL1A extracellular domain with …; test: KinExA, TL1A as CBP, free TL1A captured on 320-587-coated PMMA beads; repeat 2
[14] = molecular target: T9, single-site biotinylated human TL1A (human, UniProt O95150 72-251, single-site biotinylated (site not stated)); test: competition ELISA: antibody dilutions pre-incubated with biotinylated human TL1A (1 µg/ml), added to plate-coated DcR3/Fc; bound TL1A detected with streptavidin-HRP; blocked partner DcR3/Fc [bottom panel]
T9 construct: construct used for biotinylation not described
T9 sequence: T6 chain with L39F, V78I
Protocol: 1.8. […] DR3/Fc Chimera (R&D Systems) or DcR3/Fc Chimera (R&D Systems) was coated onto a 96-well plate (Maxisorp, Nunc) at a concentration of 2 μg/ml.

[15] = molecular target: T10, human TL1A extracellular domain with N-terminal HIS and FLAG tag (human, UniProt O95150 72-251); test: KinExA, PMMA beads coated with 320-587, TL1A as the CBP, assay 2
T10 construct: the whole entry is named; also called TNFSF15
T10 sequence: T6 chain with L39F, V78I
Protocol: (§1) Using the time to reach equilibrium determined above, all curves were allowed to come to equilibrium in a 25° C. incubator for 3 days.

[16] = molecular target: T10, human TL1A extracellular domain with …; test: SPR Run 8, antibody on Protein A, TL1A 5 ug/mL, timepoint 44
From the text: (§2) 1.5. Antibody expression and antigen binding as determined by SPR. Using a CM5 sensor chip (GE Healthcare) Protein A (Pierce) was coupled to the chip surface using an amine coupling kit (GE Healthcare). Protein A was coupled on flow cell 1 and 2 (or alternatively 3 and 4) using a BIACORE® T200. […] The amount of supernatant or purified protein (as well as the concentration) injected during the capture stage varied between runs and is specified in the header of the Tables 3-11. At the end of injection of the supernatant or purified antibody the change in response units was measured. This value was reported as Capture Level in Tables 3-11. […] The response units were measured prior to the end of the dissociation phase. […] The sensorgrams were double referenced (flow cell 2 is subtracted from flow cell 1 and a buffer blank). As there were a large number of antibody variants to screen, these were screened across different runs (Tables 3-11). […] A summary of the conditions used in each run is below:
(§3) 2.1. […] In some experiment the antibodies were purified using Protein A chromatography (See 1.4) and purified antibodies were used in BIACORE® (GE Healthcare) experiments.

[17] = molecular target: T10, human TL1A extracellular domain with …; test: KinExA, PMMA beads coated with 320-587, TL1A as the CBP, assay 3
Protocol: as §1

[18] = molecular target: T10, human TL1A extracellular domain with …; test: KinExA, PMMA beads coated with 320-587, TL1A as the CBP, assay 1
Protocol: as §1

[19] = molecular target: T10, human TL1A extracellular domain with …; test: KinExA, Sepharose beads coated with TL1A, 320-587 as the CBP, average of 5 assays (SD 8.33)
[20] = molecular target: T10, human TL1A extracellular domain with …; test: KinExA, Sepharose beads coated with TL1A, 320-587 as the CBP, assay 1
[21] = molecular target: T10, human TL1A extracellular domain with …; test: cell-based or functional assay
[22] = molecular target: T10, human TL1A extracellular domain with …; test: KinExA, Sepharose beads coated with TL1A, 320-587 as the CBP, assay 5
[23] = molecular target: T10, human TL1A extracellular domain with …; test: KinExA, Sepharose beads coated with TL1A, 320-587 as the CBP, assay 4
[24] = molecular target: T10, human TL1A extracellular domain with …; test: KinExA, PMMA beads coated with 320-587, TL1A as the CBP, average of 3 assays (SD 13.5)
Protocol: as §1

[25] = molecular target: T10, human TL1A extracellular domain with …; test: SPR Run 8, antibody on Protein A, TL1A 5 ug/mL, timepoint 590
From the text: as §2, §3

[26] = molecular target: T10, human TL1A extracellular domain with …; test: KinExA, Sepharose beads coated with TL1A, 320-587 as the CBP, assay 2
[27] = molecular target: T10, human TL1A extracellular domain with …; test: KinExA, Sepharose beads coated with TL1A, 320-587 as the CBP, assay 3

binding result [1]: binds
binding result [2]: binds
binding result [3]: binds
binding result [4]: binds
binding result [5]: binds
binding result [6]: binds
binding result [7]: binds
kon [8]: 593000 M⁻¹ s⁻¹
kon [9]: 611000 M⁻¹ s⁻¹
kon [10]: 745000 M⁻¹ s⁻¹
kon [11]: 790000 M⁻¹ s⁻¹
kon [12]: 835000 M⁻¹ s⁻¹
kon [13]: 574000 M⁻¹ s⁻¹
IC50 (read off the curve) [14]: ~1 µg/mL
B1: 320-587 (antibody, name in Kabat numbering, V domains shown)
VH: QVQLVQSGAEVKKPGASVKVSCKASGYTFTSYDINWVRQAPGQGLEWMGWLNPNSGYTGYAQKFQGRVTMTADRSTSTAYMELSSLRSEDTAVYYCAREVPETAAFEYWGQGTLVTVSS
VL: QSVLTQPPSVSGAPGQRVTISCTSSSSDIGAGLGVHWYQQLPGTAPKLLIEGYYNRPSGVPDRFSGSKSGTSASLTITGLLPEDEGDYYCQSWDGTLSALFGGGTKLTVLG
notes: human IgG1, lambda

Kd [15]: 0.0571 nM
TL1A Binding Level (Early) [16]: 123 RU
Kd [17]: 0.0341 nM
Kd [18]: 0.0334 nM
Kd [19]: 0.041 nM
Kd [20]: 0.0404 nM
Antibody IC50, TL1A induced caspase potency assay in TF-1 cells [21]: 0.001 µg/mL
Fold improvement over 320-179, TL1A induced caspase potency assay in TF-1 cells [21]: 40 fold
Kd [22]: 0.0337 nM
Kd [23]: 0.0324 nM
Kd [24]: 0.0415 nM
TL1A Binding Level (Late) [25]: 122 RU
Kd [26]: 0.052 nM
Kd [27]: 0.0463 nM
B2: 320-587 (antibody, name in Kabat numbering, V domains shown)
VH: B1 VH
VL: B1 VL
notes: full-length human IgG1, lambda
